Consider 1 molecule from patent US20210017264A1 (SHANGHAI YILE BIOTECHNOLOGY, published 2021).

The assay addresses T1, human proBDNF protein (prokaryotically expressed, Example 1) (human, UniProt P23560 19-247).
T1 construct: Vector-derived residues or tags are not described; also called human proBDNF antigen; recombinant human proBDNF
T1 sequence (looked up): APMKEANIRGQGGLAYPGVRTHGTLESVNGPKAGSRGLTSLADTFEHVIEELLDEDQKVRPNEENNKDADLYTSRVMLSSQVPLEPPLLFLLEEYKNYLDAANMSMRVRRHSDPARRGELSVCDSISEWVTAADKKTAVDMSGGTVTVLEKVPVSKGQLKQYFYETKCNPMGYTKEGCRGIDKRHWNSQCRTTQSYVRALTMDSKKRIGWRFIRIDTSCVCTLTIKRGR
Kind of assay: SPR, Biacore T200; human proBDNF coated directly on the chip (~500 RU); 2B11 injected at 10-160 nM, 25 C; 1:1 Langmuir model. How it is done: Binding affinity of 2B11 against recombinant human proBDNF was measured by Surface Plasmon resonance (SPR) using Biacore T200™. 1×HBS-EP+ buffer was used as running buffer. Recombinant human proBDNF was directly coated on CMS biosensor chip to achieve approximately 500 response units (RU). For kinetics measurements, two-fold serial dilutions (10 nM to 160 nM) were injected at 25° C. with a flow rate of 30u1/min. Association rate (Kₐ) and dissociation rate (Kd) were calculated using a simple one to one Langmuir binding model (BIAcore Evaluation software version 3.2). The equilibrium dissociation constant (kD) was calculated as the ratio Kd/Kₐ. The binding affinity of 2B11 to human proBDNF is reported below: […]
For orientation: Surface plasmon resonance follows binding to a sensor surface in real time, without labels.

B1: anti-proBDNF monoclonal antibody 2B11 (antibody, human IgG1, kappa, V domains shown)
VH: EVKVVESGGGLVQPGGSLRLSCATSGFTFTDYYMSWVRQPPGKALEWLGFIRNKANGYTTEYSSSVKGRFTISRDNSQSILYLQMNTLRAEDSATYYCAITMDYWGQGTSVTVSS
VL: DIQMTQSPASLSASVGETVTITCRASGNIHNYLAWYQKKQGKSPHLLVYNAQTLADGVPSRFSGSASGTQYSLKIDSLQPEDFGSYYCQHFWSTPFTFGSGTKLEIKR
notes: also called murine monoclonal antibody 2B11; antibody secreted from clone 2B11
For orientation: Kd means the equilibrium constant for the complex coming apart. In general, koff refers to the first-order rate constant of dissociation. Low readings indicate a long-lived complex, high ones a short-lived complex. As a reminder, the kon is the rate constant with which the complex forms. A lower kon goes with slower complex formation. In the case of B1, the equilibrium dissociation constant (Kd) was 4.04 nM, the koff worked out at 0.00116 s⁻¹ and the on-rate (kon) was found to be 288000 M⁻¹ s⁻¹.
